Tests used:
[1] = target: recombinant his-tagged soluble human IL-11R (human) (UniProt Q14626); test: SPR; Biacore X100, multi-cycle, NTA sensor chip; his-tagged soluble hIL-6R or hIL-11R immobilised (100-250 RU per cycle); cytokines injected 133.33 to 0.183 nM, 30 uL/min, 180 s, dissociation 800 s; 25 °C, PBS with 0.05% P20 and 50 uM EDTA; two-state reaction fit
[2] = target: recombinant his-tagged soluble human IL-6R (human) (UniProt P08887); test: as above
Chain of recombinant his-tagged soluble human IL-6R (human) (P08887 20-365): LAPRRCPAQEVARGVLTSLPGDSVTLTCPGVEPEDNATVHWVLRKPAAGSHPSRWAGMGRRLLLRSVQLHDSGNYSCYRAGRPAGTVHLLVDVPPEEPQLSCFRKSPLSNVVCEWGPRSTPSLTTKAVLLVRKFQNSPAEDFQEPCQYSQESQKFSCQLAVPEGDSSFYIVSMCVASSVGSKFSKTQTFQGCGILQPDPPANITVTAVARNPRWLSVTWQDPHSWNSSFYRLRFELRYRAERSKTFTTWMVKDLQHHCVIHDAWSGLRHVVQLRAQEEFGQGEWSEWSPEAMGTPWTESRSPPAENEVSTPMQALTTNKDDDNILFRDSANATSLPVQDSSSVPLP

Chain of recombinant his-tagged soluble human IL-11R (human) (Q14626 24-370): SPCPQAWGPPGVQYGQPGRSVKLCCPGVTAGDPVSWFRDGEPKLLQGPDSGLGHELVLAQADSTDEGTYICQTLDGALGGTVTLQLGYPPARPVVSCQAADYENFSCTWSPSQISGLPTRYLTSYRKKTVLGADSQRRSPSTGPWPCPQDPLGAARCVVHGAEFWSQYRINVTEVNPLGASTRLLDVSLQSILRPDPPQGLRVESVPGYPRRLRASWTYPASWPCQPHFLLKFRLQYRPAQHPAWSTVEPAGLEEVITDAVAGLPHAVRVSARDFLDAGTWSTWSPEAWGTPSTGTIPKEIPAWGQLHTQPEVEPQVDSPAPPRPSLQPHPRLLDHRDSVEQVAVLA
Chain of chimeric cytokine IC7, Twin-Strep-tagged (IC7ts) (P05231 30-212, change not shown): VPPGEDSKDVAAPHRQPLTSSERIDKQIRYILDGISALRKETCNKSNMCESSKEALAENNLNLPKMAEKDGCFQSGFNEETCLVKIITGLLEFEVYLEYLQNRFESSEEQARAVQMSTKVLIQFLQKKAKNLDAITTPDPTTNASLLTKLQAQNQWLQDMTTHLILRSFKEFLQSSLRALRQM

Kd [1]: 0.0481 µM
ka1 (two-state fit, first step) [1]: 59900 M⁻¹ s⁻¹
ka2 (two-state fit, second step) [1]: 0.0104 s⁻¹
kd1 (two-state fit, first step) [1]: 0.0193 s⁻¹
kd2 (two-state fit, second step) [1]: 0.00183 s⁻¹
Kd [2]: 0.00638 µM
ka1 (two-state fit, first step) [2]: 92200 M⁻¹ s⁻¹
ka2 (two-state fit, second step) [2]: 0.00751 s⁻¹
kd1 (two-state fit, first step) [2]: 0.00932 s⁻¹
kd2 (two-state fit, second step) [2]: 0.000506 s⁻¹
Substance: chimeric cytokine IC7, Twin-Strep-tagged (IC7ts) (from UniProt P05231 30-212) (ligand)
